From patent US20140235701, “NGF APTAMER AND APPLICATION THEREOF” (RIBOMIC INC., published 2014)
Residue numbers refer to the chain shown, from its start.

Legend:
[1] = target: T1, NGF (nerve growth factor) (Homo sapiens, UniProt P01138 P01138:122-241); assay: SPR; more than 40N; high inhibition of receptor binding; conditions: tags: R&D Systems, chain copies: 2
[2] = target: T1, NGF (nerve growth factor); assay: cell_activity; neurite; conditions: tags: R&D Systems; chain copies: 2
Description: (§1) The cells (2500 cells per well) were cultured for one day in an RPMI-1640 medium containing 2.5% horse serum and 1.25% fetal bovine serum in a 96 well flat-bottom plate coated with collagen type IV. […] Two days later, the cytoplasm and nuclei were stained using Cellomics Neurite Outgrowth Kit (manufactured by Thermo Scientific), and neurite length per cell was measured by Cellomics ArrayScan VTI (manufactured by Thermo Scientific). With the neurite length per cell obtained by the addition of NGF alone as inhibitory activity 0%, and that of the cell obtained by NGF free culture for 2 days as inhibitory activity 100%, the inhibitory activity of the aptamer was calculated from the neurite length per cell obtained by culturing with the addition of NGF and the aptamer in mixture.

NT-4 (neurotrophin-4) = target: T2, NT-4 (neurotrophin-4) (Homo sapiens, UniProt P34130 P34130:81-210); assay: cell_activity; TF-1; conditions: tags: R&D Systems; chain copies: 2
T2 sequence: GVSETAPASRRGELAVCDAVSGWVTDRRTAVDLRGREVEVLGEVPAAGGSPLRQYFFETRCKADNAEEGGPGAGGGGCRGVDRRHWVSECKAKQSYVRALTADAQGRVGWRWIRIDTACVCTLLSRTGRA
From the text: Using TF-1 cells, whether NGF aptamer inhibits BDNF, NT-3, NT-4 was examined. Human receptor genes (TrkB, TrkC, p75) for respective neurotrophic factors were introduced into TF-1 cells (ATCC Number: CRL-2003), which is a human erythroleukemic cell line, by using a retrovirus vector to give cells that highly express these receptors stably. TF-1 cells introduced with TrkB and p75 were used for the evaluation of inhibitory activity against BDNF, TF-1 cells introduced with TrkC and p75 were used for the evaluation against NT-3, and TF-1 cells introduced with TrkB alone were used for the evaluation against NT-4. These cells were suspended in an RPMI-1640 medium containing 20% fetal bovine serum, and seeded in a white 96 well flat-bottom plate at 1000 cells (50 μL) per well. Thereto was added a mixed solution 50 μL of human BDNF (final concentration 0.074 nM) or NT-3 (final concentration 0.074 nM) or NT-4 (final concentration 0.071 nM) and the aptamer (final concentration 1 μM-0.01 nM), which had been pre-reacted at room temperature for 30 min in a serum-free RPMI-1640 medium, 3 days later, 100 μL of CellTiter-Glo reagent for CellTiter-Glo Luminescent Cell Viability Assay (manufactured by Promega) was added to each well, chemiluminescence was measured by a microplate reader. With the amount of luminescence per well obtained by the addition of BDNF or NT-3 or NT-4 alone and culture of the cells for 3 days as inhibitory activity 0%, and that of the well obtained by culture for 3 days without addition of BDNF or NT-3 or NT-4 as inhibitory activity 100%, the inhibitory activity of the aptamer was calculated from the amount of luminescence per well obtained by culturing with the addition of BDNF or NT-3 or NT-4 and the aptamer in mixture. When the inhibitory activity was 0 or below, ‘0%’ is indicated. The 50% inhibitory concentration (IC₅₀) was determined from the concentrations at two, above and below points sandwiching the 50% inhibitory activity. An IC₅₀ value indicated as “>X” means that the inhibitory activity was not more than 50% when the indicated concentration X was the maximum measured concentration. N.D. means not measured.

[3] = target: T1, NGF (nerve growth factor); assay: cell_activity; neurite; TF-1 <0.1; conditions: tags: R&D Systems; chain copies: 2
[4] = target: T1, NGF (nerve growth factor); assay: cell_activity; neurite outgrowth inhibition; conditions: tags: R&D Systems; chain copies: 2
Description: as §1

[5] = target: T1, NGF (nerve growth factor); assay: cell_activity; neurite; TF-1 >0.1; conditions: tags: R&D Systems; chain copies: 2
[6] = target: T1, NGF (nerve growth factor); assay: cell_activity; neurite; TF-1 >0.3; conditions: tags: R&D Systems; chain copies: 2

T1 sequence (P01138 122-241, one chain of several): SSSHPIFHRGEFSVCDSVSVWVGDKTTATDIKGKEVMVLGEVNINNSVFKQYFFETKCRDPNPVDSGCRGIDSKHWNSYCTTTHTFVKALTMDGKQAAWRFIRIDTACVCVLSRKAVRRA

B1: SEQ ID NO: 12 (ssRNA)
RNA: GGGUCCUGCUGCGUAGUUUCCGUCUCCGUGGCUGUUACCC
modifications: 2'-F C and U; 2'-OH G; 2'-H (deoxy) A
- binding result ([1]; stem 1 - internal loop 1 - stem 2 - loop 2 (consensus secondary structure 1)): binds

B2: SEQ ID NO: 68(1) (ssRNA)
RNA: B1 RNA with C9A, C26G, G31U
modifications: 2'-OMe G (G8,G34 2'-OH), dA, 2'-F C/U; 5',3' idT
- IC50 [2]: ≤ 1 nM

B3: SEQ ID NO: 155 (ssRNA)
RNA: B1 RNA with U14C, C26A
modifications: 2'-OMe G (G8,G34 2'-OH), dA, 2'-F C/U; 5',3' idT
- IC50 [2]: ≤ 1 nM

B4: SEQ ID NO: 154 (ssRNA)
RNA: B1 RNA with C26G
modifications: 2'-OMe G (G8,G34 2'-OH), dA, 2'-F C/U; 5' idT, 3' PEG40GS2
- IC50 [2]: ≤ 1 nM

B5: SEQ ID NO: 153 (ssRNA)
RNA: B1 RNA with C26G
modifications: 2'-OMe G (G8,G34 2'-OH), dA, 2'-F C/U; 5' PEG40GS2, 3' idT
- IC50 [2]: ≤ 1 nM

B6: SEQ ID NO: 152 (ssRNA)
RNA: B1 RNA with C26G
modifications: 2'-OMe G (G8,G34 2'-OH), dA, 2'-F C/U; 5',3' idT
- IC50 [2]: ≤ 1 nM

B7: SEQ ID NO: 71(1) (ssRNA)
RNA: B1 RNA with G13A, C26G, C27U
modifications: 2'-OMe G (G8,G34 2'-OH), dA, 2'-F C/U; 5',3' idT
- IC50 [2]: ≤ 1 nM

B8: SEQ ID NO: 151 (ssRNA)
RNA: B1 RNA with C26G
modifications: 2'-OMe G (G8,G26,G34 2'-OH), dA, 2'-F C/U; 5',3' idT
- IC50 [2]: ≤ 1 nM

B9: SEQ ID NO: 74(1) (ssRNA)
RNA: B1 RNA with G13A, U14G, C27G
modifications: 2'-OMe G (G8,G34 2'-OH), dA, 2'-F C/U; 5',3' idT
- IC50 [2]: ≤ 1 nM

B10: SEQ ID NO: 13 (ssRNA)
RNA: GGGGUCCUGCUGCGUAGUUUCCGUCUCCGUGGCUGUUACCCC
modifications: 2'-F C and U; 2'-OH G; 2'-H (deoxy) A
- binding result [1]: binds

B11: SEQ ID NO: 87(1) (ssRNA)
RNA: GGGUCCUGCUCAAGAGUUUCCGUCUCGUGGGCUGUUACCC
modifications: 2'-OMe G1-3,C38-40; other C/U 2'-F, G 2'-OH, dA; 5',3' idT
- IC50 (NT-4 (neurotrophin-4)): < 100 nM
- IC50 [3]: 0.173 nM

B12: SEQ ID NO: 88(1) (ssRNA)
RNA: B11 RNA with C9U, G30A, G31A
modifications: 2'-OMe C38-40; other C/U 2'-F, G 2'-OH, dA; 5',3' idT
- IC50 (NT-4 (neurotrophin-4)): < 100 nM
- IC50 [3]: 0.241 nM

B13: SEQ ID NO: 88(4) (ssRNA)
RNA: B11 RNA with C9U, G30A, G31A
modifications: as 88(3) plus 2'-OMe U9,U10,C11,G29
- IC50 (NT-4 (neurotrophin-4)): 300 nM
- IC50 [3]: 0.111 nM

B14: SEQ ID NO: 82(64) (ssRNA)
RNA: GGGUCCUGGAUAAGAGUUUCCGUCUCGUAUCCUGUUACCC
modifications: 2'-F C5,U7,U17,U18,U19,C20,C24,U25,U33,U36; 2'-OH G8,G34; 2'-H A; 2'-OMe all other; 5' PEG40TS2; 3' idT
- IC50 [4]: 0.107 nM

B15: SEQ ID NO: 82(14) (ssRNA)
RNA: B14 RNA
modifications: as 82(1) except 2'-OMe U33
- IC50 [5]: 0.294 nM

B16: SEQ ID NO: 82(57) (ssRNA)
RNA: B14 RNA
modifications: as 82(48) without 5' idT; PS between U7 and G8
- IC50 [6]: 0.045 nM

B17: SEQ ID NO: 82(30) (ssRNA)
RNA: B14 RNA
modifications: as 82(1) except dC20
- IC50 [5]: 0.244 nM

B18: SEQ ID NO: 168 (ssRNA)
RNA: B14 RNA with U17T, U33T
modifications: as 82(48) except dU7,dT17,dT33,dU36
- IC50 [5]: 0.261 nM

B19: SEQ ID NO: 82(31) (ssRNA)
RNA: B14 RNA
modifications: as 82(1) except dC24
- IC50 [5]: 0.276 nM

B20: SEQ ID NO: 161 (ssRNA)
RNA: B14 RNA with U33T
modifications: 2'-F C5,U7,U17,U18,U19,C20,C24,U25,U36; dT33; 2'-OH G8,G34; 2'-H A; 2'-OMe all other; idT 5' and 3'
- IC50 [4]: 0.036 nM
